Measured values as given in US20160346402A1 (Bayer, published 2016).

What follows are binders tested against T1, TPP-2305, hTNFRSF12 amino acids a28-80 (recombinant human TWEAKR protein) (human, UniProt Q9NP84 28-80) (assay: SPR (Biacore T100), antibody captured, TWEAKR TPP-2305 as analyte, 1:1 model).
T1 construct: Soluble monomeric antigen, injected as analyte over the captured antibodies; Bought protein
Procedure: The antibodies were immobilized on a CM5 sensor chip using an indirect capture reagent, anti-human IgG(Fc). Reagents of the “Human Antibody Capture Kit” (BR-1008-39, GE Healthcare Biacore, Inc.) were used as described by the manufacturer.
Sensorgrams were generated after in-line reference cell correction, followed by subtraction of the buffer sample. The dissociation constant (KD) was calculated based on the ratio of association (kₒₙ) and dissociation (koff) constants, obtained by fitting sensorgrams using a 1:1 first order binding model.

| Kd [nM] | koff [s⁻¹] | kon [M⁻¹ s⁻¹] | Binder |
| --- | --- | --- | --- |
| 22.1 | 0.09 | 4.1e+06 | TPP-2093 (antibody, human IgG1, kappa, V domains shown, human IgG1) VH: EVQLLESGGGLVQPGGSLRLSCAASGFTFSPYPMMWVRQAPGKGLEWVSYISPSGGSTHYADSVKGRFTISRDNSKNTLYLQMNSLRAEDTAVYYCARGGDTYFDYFDYWGQGTLVTVSS VL: DIQMTQSPSSLSASVGDRVTITCRASQSISSYLNWYQQKPGKAPKLLIYQASSLQSGVPSRFSGSGSGTDFTLTISSLQPEDFATYYCQQSYTSPFITFGQGTKVEIKR |
| 27.6 | 0.11 | 4.2e+06 | TPP-1538 (antibody, human IgG1, kappa, human IgG1) light: AQDIQMTQSPATLSASVGDRVTITCRASQSISSYLNWYQQKPGKAPKLLIYAASSLQSGVPSRFSGSGSGTDFTLTISSLQPEDFATYYCQQSYSSPGITFGPGTKVEIKRTVAAPSVFIFPPSDEQLKSGTASVVCLLNNFYPREAKVQWKVDNALQSGNSQESVTEQDSKDSTYSLSSTLTLSKADYEKHKLYACEVTHQGLSSPVTKSFNRGEC heavy: not shown |
| 27.6 | 0.11 | 4.2e+06 | TPP-2084 (antibody, human IgG1, kappa, V domains shown, human IgG1) VH: EVQLLESGGGLVQPGGSLRLSCAASGFTFSPYPMMWVRQAPGKGLEWVSYISPSGGSTHYADSVKGRFTISRDNSKNTLYLQMNSLRAEDTAVYYCARGGDTYFDYFDYWGQGTLVTVSS VL: not shown |
| 12.4 | 0.11 | 9.1e+06 | TPP-2090 (antibody, human IgG1, kappa, V domains shown, human IgG1; also called anti-TWEAKR AK-1) VH: EVQLLESGGGLVQPGGSLRLSCAASGFTFSPYPMIWVRQAPGKGLEWVSYISPSGGSTHYADSVKGRFTISRDNSKNTLYLQMNSLRAEDTAVYYCARGGDTYFDYFDYWGQGTLVTVSS VL: DIQMTQSPSSLSASVGDRVTITCRASQSISGYLNWYQQKPGKAPKLLIYQASSLQSGVPSRFSGSGSGTDFTLTISSLQPEDFATYYCQQSYTSPFITFGQGTKVEIKR |
| 28.9 | 0.086 | 3e+06 | TPP-2077 (antibody, human IgG1, kappa, human IgG1) light: DIQMTQSPATLSASVGDRVTITCRASQSISSYLNWYQQKPGKAPKLLIYAASSLQSGVPSRFSGSGSGTDFTLTISSLQPEDFATYYCQQSYSSPGITFGPGTKVEIKRTVAAPSVFIFPPSDEQLKSGTASVVCLLNNFYPREAKVQWKVDNALQSGNSQESVTEQDSKDSTYSLSSTLTLSKADYEKHKLYACEVTHQGLSSPVTKSFNRGEC heavy: not shown |
| 12.1 | 0.1 | 8.4e+06 | TPP-2149 (antibody, human IgG1, kappa, V domains shown, human IgG1) VH: EVQLLESGGGLVQPGGSLRLSCAASGFTFSPYPMIWVRQAPGKGLEWVSYISPSGGKTHYADSVKGRFTISRDNSKNTLYLQMNSLRAEDTAVYYCARGGDTYFDYFDYWGQGTLVTVSS VL: DIQMTQSPATLSASVGDRVTITCRASQSISGYLNWYQQKPGKAPKLLIYQASSLQSGVPSRFSGSGSGTDFTLTISSLQPEDFATYYCQQSYTSPFITFGPGTKVEIKR |

Continued, binder first:

| Binder | Kd [nM] | koff [s⁻¹] | kon [M⁻¹ s⁻¹] |
| --- | --- | --- | --- |
| 136.1(TPP-2194) (antibody, mouse IgG2a, kappa, V domains shown, Comparative antibody, murine IgG2a; variable domains from WO2009/020933 with added constant regions) VH: EVKLEESGGGLVQPGGSMKLSCVASGFTFNNYWMSWVRQSPEKGLEWLAEIRLKSDNYATHYAESVKGKFTISRDDSKSRLYLQMNNLRAENTGIYYCTGGFADYFDYWGQGTTLTVSS VL: DIVLTQSPASLTVSLGQRATISCRASQSVSTSSYSYMQWYQQRPGQPPKLLIKYATNLDSGVPARFSGSGSGTDFTLNIHPVEEEDAATYYCQHSWEIPYTFGGGTKLEIKR | 0.8 | 0.0324 | 3.84e+07 |
| 18.3.3(TPP-2193) (antibody, mouse IgG2a, kappa, V domains shown, Comparative antibody, murine IgG2a; variable domains from WO2009/020933 with added constant regions) VH: EVKLGESGGGLVQPGGSMKLSCVASGFPFTKYWMNWVRQSPEKGLEWVAEIRLKSDNYATHYAESAKGRFTISRDDSRSSVYLQMNNLRAEDTAIYYCSPTYADTMDYWGQGTSVTVSS VL: DIVLTQSPASLAVSLGQRATISCKASQSVSTSTYSYMQWYQQRPGQSPKLLIKYASKLDSGVPARFSGSGSGTDFTLNIHPVEEEDTATYYCQHSWELPYTFGGGTRLEIKR | 1.7 | 0.0285 | 1.64e+07 |
| TPP-883 (antibody, human IgG1, kappa, V domains shown, human IgG1) VH: EVQLLESGGGLVQPGGSLRLSCAASGFTFSPYPMMWVRQAPGKGLEWVSYISPSGGKTHYADSVKGRFTISRDNSKNTLYLQMNSLRAEDTAVYYCARGGDGYFDYFDYWGQGTLVTVSS VL: DIQMTQSPATLSASVGDRVTITCRASQSISSYLNWYQQKPGKAPKLLIYAASSLQSGVPSRFSGSGSGTDFTLTISSLQPEDFATYYCQQSYSSPGITFGPGTKVEIKR | 206 | 0.91 | 4.4e+06 |
| TPP-2148 (antibody, human IgG1, kappa, V domains shown, human IgG1) VH: EVQLLESGGGLVQPGGSLRLSCAASGFTFSPYPMMWVRQAPGKGLEWVSYISPSGGKTHYADSVKGRFTISRDNSKNTLYLQMNSLRAEDTAVYYCARGGDTYFDYFDYWGQGTLVTVSS VL: DIQMTQSPATLSASVGDRVTITCRASQSISSYLNWYQQKPGKAPKLLIYQASSLQSGVPSRFSGSGSGTDFTLTISSLQPEDFATYYCQQSYTSPFITFGPGTKVEIKR | 24.5 | 0.13 | 5.1e+06 |
| P3G5(TPP-2195) (antibody, mouse IgG2a, kappa, V domains shown, Comparative antibody, murine IgG2a; variable domains from WO2009/140177 with added constant regions) VH: QVQLQQSGPEVVRPGVSVKISCKGSGYTFTDYGIHWVKQSHAKSLEWIGVISTYNGYTNYNQKFKGKATMTVDKSSSTAYMELARLTSEDSAIYYCARAYYGNLYYAMDYWGQGTSVTVSS VL: DIVLTQSPASLAVSLGQRATISCRANKSVSTSSYSYMHWYQQKPGQPPKLLIKYASNLESGVPARFSGSGSGTDFILNIHPVEEEDAATYYCQHSRELPFTFGSGTKLEIKR | 0.5 | 0.00122 | 2.31e+06 |
| P4A8(TPP-1324) (antibody, human IgG1, kappa, V domains shown, Comparative antibody, human IgG1; variable domains from WO2009/140177 with added constant regions) VH: QVQLVQSGAEVKKPGASVKVSCKGSGYTFTDYGMHWVRQAPGQGLEWMGVISTYNGYTNYNQKFKGRVTMTVDKSTSTAYMELRSLRSDDTAVYYCARAYYGNLYYAMDYWGQGTLVTVSS VL: DIVLTQSPASLAVSLGQRATISCRASKSVSTSSYSYMHWYQQKPGQPPKLLIKYASNLESGVPARFSGSGSGTDFSLNIHPMEEDDTAMYFCQHSRELPFTFGGGTKLEIKR | 2.3 | 0.0027 | 1.2e+06 |

These binders were tested against T2, hTNFRSF12 amino acids a28-80-M50A-hIgG1-Fc (human) (assay: ELISA: TWEAKR-Fc construct coated at 62 ng/ml, biotinylated IgG titrated from 100 nM; token + marks IC50 of 1 to […] pM).
T2 construct: TWEAKR-Fc mutein, coated on the ELISA plate; also called TPP-1988
Procedure: To obtain dose-reaction data, the different TWEAKR-Fc muteins were coated at a low concentration (62 ng/ml) onto a 384-well Maxisorb ELISA plate, and a serial 2-fold dilution of biotinylated IgG beginning with a concentration of 100 nM was used as a soluble binding partner. Detection was carried out using streptavidin-HRP and Amplex Red.
IgGs were biotinylated using an about 2-fold molar excess of biotin-LC-NHS (Pierce; Cat. No. 21347) according to the instructions of the manufacturer and desalted using Zeba desalting columns (Pierce; Cat. No. 89889).

| binding result | Binder |
| --- | --- |
| binds | PDL-192(TPP-1104) (antibody, human IgG1, kappa, V domains shown, human IgG1; variable domains from WO2009/020933 with a human IgG1 constant region added; biotinylated IgG in the ELISA) VH: QVELVESGGGLVQPGGSLRLSCAASGFTFSSYWMSWVRQAPGKGLEWVAEIRLKSDNYATHYAESVKGRFTISRDDSKNSLYLQMNSLRAEDTAVYYCTGYYADAMDYWGQGTLVTVSS VL: DIQMTQSPSSLSASVGDRVTITCRASQSVSTSSYSYMHWYQQKPGKAPKLLIKYASNLESGVPSRFSGSGSGTDFTLTISSLQPEDFATYYCQHSWEIPYTFGGGTKVEIKR |
